Reference: patent US20050191626, “Method for forming a stable complex comprising a transcription product and translation product of a dna encoding a desired polypeptide, a nucleic acid construct used for the method, a complex formed by the method, and screening of a functional protein and mrna or dna encoding the protein using the …” (published 2005)

T1: DHFR-(RE)1 (DHFR fused to one HIV Tat-derived RE peptide) (UniProt P04608)
T1 sequence: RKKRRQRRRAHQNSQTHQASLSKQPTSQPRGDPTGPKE

T2: DHFR-(RE)3 (DHFR fused to three tandem Tat-derived RE peptides) (UniProt P04608)
T2 sequence: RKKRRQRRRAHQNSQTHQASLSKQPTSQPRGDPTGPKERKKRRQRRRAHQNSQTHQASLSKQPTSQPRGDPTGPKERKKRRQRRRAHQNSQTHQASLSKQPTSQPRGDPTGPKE

T3: DHFR-(RE)2 (DHFR fused to two tandem Tat-derived RE peptides) (UniProt P04608)
T3 sequence: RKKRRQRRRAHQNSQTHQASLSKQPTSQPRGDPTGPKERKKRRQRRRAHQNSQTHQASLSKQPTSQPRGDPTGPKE

B1: (Apt)2 two tandem Tat aptamers via A6 linker (ssRNA)
RNA: AAAAAACGAAGCUUGAUCCCGUUUGCCGGUCGAUCGCUUCGAAAAAACGAAGCUUGAUCCCGUUUGCCGGUCGAUCGCUUCG
B2: (Apt)3 three tandem Tat aptamers via A6 linkers (ssRNA)
RNA: AAAAAACGAAGCUUGAUCCCGUUUGCCGGUCGAUCGCUUCGAAAAAACGAAGCUUGAUCCCGUUUGCCGGUCGAUCGCUUCGAAAAAACGAAGCUUGAUCCCGUUUGCCGGUCGAUCGCUUCG

Columns and labels:
[1] = biological target: T1, DHFR-(RE)1 (DHFR fused to one HIV Tat-derived RE peptide); assay: EMSA; settings: apparent Kd; 10 mM Tris-HCl pH 8.0, 70 mM NaCl, 2 mM EDTA, 0.1% NP-40, 40 nM tRNA, 30 C
[2] = biological target: T2, DHFR-(RE)3 (DHFR fused to three tandem Tat-derived RE peptides); assay: EMSA; settings: apparent Kd; 10 mM Tris-HCl pH 8.0, 70 mM NaCl, 2 mM EDTA, 0.1% NP-40, 40 nM tRNA, 30 C
[3] = biological target: T3, DHFR-(RE)2 (DHFR fused to two tandem Tat-derived RE peptides); assay: EMSA; settings: apparent Kd; 10 mM Tris-HCl pH 8.0, 70 mM NaCl, 2 mM EDTA, 0.1% NP-40, 40 nM tRNA, 30 C
[4] = biological target: dihydrofolate reductase (DHFR), wild type (UniProt P0ABQ4 P0ABQ4:1-159); assay: EMSA; no mobility change with increasing wild-type DHFR; settings: tags: poly-His (pET30a); label: 5'-32P

Molecule | binding result [4] | further results
AAAAAACGAAGCUUGAUCCCGUUUGCCGGUCGAUCGCUUCG [(Apt)1 Tat aptamer] | – | Kd [1]: < 24 nM
AAAAAACGAAGCUUGAUCCCGUUUGCCGGUCGAUCGCUUCGAAAAAACGAAGCUUGAUCCCGUUUGCCGGUCGAUCGCUUCGAAAAAACGAAGCUUGAUCCCGUUUGCCGGUCGAUCGCUUCG [(Apt)3 three tandem Tat aptamers via A6 linkers] | – | Kd [2]: < 0.016 nM
AAAAAACGAAGCUUGAUCCCGUUUGCCGGUCGAUCGCUUCGAAAAAACGAAGCUUGAUCCCGUUUGCCGGUCGAUCGCUUCG [(Apt)2 two tandem Tat aptamers via A6 linker] | – | Kd [3]: < 0.2 nM
AAAAAACGAAGCUUGAUCCCGUUUGCCGGUCGAUCGCUUCG (ssRNA) [(Apt)1 Tat aptamer] | no binding | –
B1 | no binding | –
B2 | no binding | –
